Test results published in US20100311820, “NUCLEIC ACID MODULATORS OF GLYCOPROTEIN VI” (Regado Biosciences, Inc, published 2010).

T1: Glycoprotein VI extracellular domain (Gln21-Lys267) (Homo sapiens, UniProt Q9HCN6 SEQ:1-247)
T1 chain: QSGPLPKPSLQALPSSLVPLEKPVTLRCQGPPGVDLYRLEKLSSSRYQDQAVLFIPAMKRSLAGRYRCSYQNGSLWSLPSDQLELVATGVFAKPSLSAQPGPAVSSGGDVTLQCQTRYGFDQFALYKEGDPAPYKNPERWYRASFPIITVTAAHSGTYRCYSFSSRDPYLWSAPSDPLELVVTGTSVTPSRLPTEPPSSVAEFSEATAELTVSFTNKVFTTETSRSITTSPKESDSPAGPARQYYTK

B1: EF-2 T1 (ssRNA)
RNA: GGGAGGACGAUGCGGUGCCAAAACACCCGUCUUGCAUAAGCCUCCUACGGCAACU
modifications: 2'-F C and U; 2'-OH A and G
B2: EF-3 (RB429) (ssRNA)
RNA: GGGAGGACGAUGCGGAUCACACCGCGUCUUGCGUAAGCCUCCUACUAACGGAUCGCAGACGACUCGCUGAGGAUCCGAGA
modifications: 2'-F C and U; 2'-OH A and G
B3: E2-6 (RB431) (ssRNA)
RNA: GGGAGGACGAUGCGGAUAGACCGCGUCUGGCAUAAGCCUCCAAACACUCUGAUCCCAGACGACUCGCUGAGGAUCCGAGA
modifications: 2'-F C and U; 2'-OH A and G
B4: EF-22 (RB433) (ssRNA)
RNA: GGGAGGACGAUGCGGAUUCAACCCGCCUCUGGCAUAAGCCUACCCAUCGUGAUUGUCAGACGACUCGCUGAGGAUCCGAGA
modifications: 2'-F C and U; 2'-OH A and G
B5: EF-31 (RB435) (ssRNA)
RNA: GGGAGGACGAUGCGGUCUAAGCUGCGUCUGGCAUAAGCCUCACCUACUCGAUACUCAGACGACUCGCUGAGGAUCCGAGA
modifications: 2'-F C and U; 2'-OH A and G

Target: T1, Glycoprotein VI extracellular domain …
Assay: filter
Settings: tags: C-terminal His6; R&D Systems 3627-GP; label: 5'-32P
Description: Enrichment of the ligand libraries for GPVI was monitored in direct binding studies utilizing radiolabeled ligand RNA from respective rounds of SELEX and soluble GPVI. Binding studies were performed with trace P³² end-labeled RNA added to serial dilutions of GPVI in Binding Buffer F. To prepare radiolabeled RNAs for binding studies, one hundred picomoles of RNA was dephosphorylated with Bacterial Alkaline Phopshatase at 50° C. for 1 hour. The reaction was phenol:chloroform:isoamyl alcohol (25:24:1) extracted, chloroform: isoamyl:alcohol (24:1) extracted, and ethanol precipitated. Three pmoles of dephosphorylated RNA was end labeled with T4 Poylnucleotide Kinase with supplied buffer, and 20 μCi of γ-P³²-ATP and subsequently cleaned with a Biorad MicroBio Spin P-30 spin column. End-labeled RNA was diluted to a final concentration of 2000 cpm/μL and heat denatured at 65° C. for 5 minutes. RNA and GPVI dilutions were equilibrated at 37° C. prior to use. RNA (5 μL) was added to varying concentrations of GPVI (15 μL) at 37° C. and incubated together for 5 to 15 minutes. The complexed RNA/GPVI protein mixture was then loaded over a Protean BA85 nitrocellulose membrane, overlayed on a Genescreen Plus Nylon membrane, in a 96 well vacuum manifold system with washing. The membranes were exposed to a phosphorimager screen, scanned, and quantitated with a Molecular Dynamics Storm 840 Phosphorimager. The fraction bound was calculated by dividing the counts on the nitrocellulose by the total counts and adjusting for the background. Results for binding of enriched ligand libraries from round 10 E2 and round 10 EF of the SELEX as compared to the GPVI-naïve starting ligand library are shown in FIG. 3.

Binder | Kd [nM]
GGGAGGACGGCGCGCCUGGCAUAAGCCUCCC (ssRNA, RB490 pattern but 2'-OH G19 and 2'-F C26) [RB488] | < 10
GGGAGGACGGCGCGCCUGGCAUAAGCCUCCC (ssRNA, RB490 with 2'-OMe G6) [RB491] | < 10
GGGAGGACGGCGCGCCUGGCAUAAGCCUCCC (ssRNA, RB490 with 2'-deoxy A7) [RB495] | < 10
GGGAGGACGGCGCGCCUGGCAUAAGCCUCCC (ssRNA, RB490 with 2'-OMe G9) [RB497] | < 10
GGGAGGACGGCGCGCCUGGCAUAAGCCUCCC (ssRNA, RB490 with 2'-OMe C15) [RB500] | < 10
GGGAGGACGGCGCGCCUGGCAUAAGCCUCCC (ssRNA, RB490 with 2'-OMe G25) [RB502] | < 10
GGGAGGACGGCGCGCCUGGCAUAAGCCUCCC (ssRNA, RB490 with 2'-OMe A21) [RB503] | < 10
GGGAGGACGGCGCGCCUGGCAUAAGCCUCCC (ssRNA, RB490 with 2'-OMe A23) [RB505] | < 10
GGGAGGACGGCGCGCCUGGCAUAAGCCUCCC (ssRNA, RB490 with 2'-OMe A24) [RB506] | < 10
GGGAGGACGGCGCGCCUGGCAUAAGCCUCCC (ssRNA, RB490 with 2'-OMe G6, 2'-deoxy A7) [RB519] | < 10
GGAGGACGGCGCGCCUGGCAUAAGCCUCC (ssRNA, RB540 with PS G9-C10) [RB550] | < 10
GGAGGACGGCGCGCCUGGCAUAAGCCUCC (ssRNA, RB551 with PS C7-G8) [RB554] | < 10
GGAGGACGGCGCGCCUGGCAUAAGCCUCC (ssRNA, RB551 with PS G8-G9) [RB555] | < 10
GGAGGACGGCGCGCCUGGCAUAAGCCUCC (ssRNA, RB551 with PS G9-C10) [RB556] | < 10
GGAGGACGGCGCGCCUGGCAUAAGCCUCC (ssRNA, RB540 with PS C7-G8 and G8-G9) [RB561] | < 10
B1 | 15.5
GGGAGGACGAUGCGGUGCCAAAACACCCGUCUUGCAUAAGCCUCCU (ssRNA, 2'-F C and U; 2'-OH A and G) [EF-2 T2 (RB428)] | 15.5
B2 | 15.5
GGGAGGACGAUGCGGAUCACACCGCGUCUUGCGUAAGCCUCCU (ssRNA, 2'-F C and U; 2'-OH A and G) [EF-3 T2 (RB430)] | 15.5
GGGAGGACGGCGGAUCACACCGCCUUGCGUAAGCCUCCC (ssRNA, 2'-F C and U; 2'-OH A and G) [EF-3 T4 (RB446)] | 15.5
GGGAGGACGGCGAUCACACGCCUUGCGUAAGCCUCCC (ssRNA, 2'-F C and U; 2'-OH A and G) [EF-3 T5 (RB447)] | 15.5
B3 | 15.5
GGGAGGACGAUGCGGAUAGACCGCGUCUGGCAUAAGCCUCC (ssRNA, 2'-F C and U; 2'-OH A and G) [E2-6 T1 (RB432)] | 15.5
B4 | 15.5
GGGAGGACGAUGCGGAUUCAACCCGCCUCUGGCAUAAGCCUACCC (ssRNA, 2'-F C and U; 2'-OH A and G) [EF-22 T1 (RB434)] | 15.5
B5 | 15.5

Binder | Kd [nM]
GGGAGGACGAUGCGGUCUAAGCUGCGUCUGGCAUAAGCCUCACCUACU (ssRNA, 2'-F C and U; 2'-OH A and G) [EF-31 T1 (RB436)] | 15.5
GGGAGGACGAUGCGGUCUAAGCUGCGUCUGGCAUAAGCCUCACC (ssRNA, 2'-F C and U; 2'-OH A and G) [EF-31 T2 (RB439)] | 15.5
GGGAGGACGAUGCGGUCUAAGCUGCGUCUGGCAUAAGCCUCCC (ssRNA, 2'-F C and U; 2'-OH A and G) [EF-31 T3 (RB440)] | 15.5
GGGAGGACGGCGGUCUAAGCUGCCUGGCAUAAGCCUCCC (ssRNA, 2'-F C and U; 2'-OH A and G) [EF-31 T5 (RB442)] | 15.5
GGGAGGACGGCGUCUAAGCGCCUGGCAUAAGCCUCCC (ssRNA, 2'-F C and U; 2'-OH A and G) [EF-31 T6 (RB443)] | 15.5
GGGAGGACGGCGCUAACGCCUGGCAUAAGCCUCCC (ssRNA, 2'-F C and U; 2'-OH A and G) [EF-31 T7 (RB444)] | 15.5
GGGAGGACGGCGCUAACGCCUGGCAUAAGCCUCCC (ssRNA, RB448 with 2'-OMe at most of Stem 1 (G1,G2,G3,A4 and 3' partners)) [RB452] | 15.5
GGGAGGACGGCGCUAACGCCUGGCAUAAGCCUCCC (ssRNA, RB448 with 2'-OMe C11,G12,C17,G18) [RB455] | 15.5
GGGAGGACGGCGCUAACGCCUGGCAUAAGCCUCCC (ssRNA, RB448 with 2'-OMe G22) [RB460] | 15.5
GGGAGGACGGCGCGCCUGGCAUAAGCCUCCC (ssRNA, RB490 with 2'-OMe A7) [RB492] | 15.5
GGGAGGACGGCGCGCCUGGCAUAAGCCUCCC (ssRNA, RB490 with 2'-OMe C8) [RB493] | 15.5
GGGAGGACGGCGCGCCUGGCAUAAGCCUCCC (ssRNA, RB490 with 2'-deoxy C8) [RB496] | 15.5
GGGAGGACGGCGCGCCUGGCAUAAGCCUCCC (ssRNA, RB490 with 2'-OMe G10) [RB499] | 15.5
GGGAGGACGGCGCGCCUGGCAUAAGCCUCCC (ssRNA, RB490 with 2'-OMe U22) [RB504] | 15.5
GGGAGGACGGCGCGCCUGGCAUAAGCCUCCC (ssRNA, RB490 with 2'-OMe G6,A7) [RB518] | 15.5
GGGAGGACGGCGCGCCUGGCAUAAGCCUCCC (ssRNA, RB520 with 2'-F C15) [RB524] | 15.5
GGGAGGACGGCGCGCCUGGCAUAAGCCUCCC (ssRNA, RB524 with 2'-deoxy A7,G9) [RB526] | 15.5
GGGAGGACGGCGCGCCUGGCAUAAGCCUCCC (ssRNA, RB526 with 2'-OMe G18) [RB531] | 15.5
GGGAGGACGGCGCGCCUGGCGUAAGCCUCCC (ssRNA, RB531 pattern with 2'-OMe G21) [RB532] | 15.5
GGGAGGACGGCGCGCCUUGCAUAAGCCUCCC (ssRNA, RB526 pattern with 2'-F U18) [RB533] | 15.5
GGGAGGACGGCGCGCCUUGCGUAAGCCUCCC (ssRNA, RB526 pattern with 2'-F U18 and 2'-OMe G21) [RB534] | 15.5
GGGAGGACGACGCGUCUGGCAUAAGCCUCCC (ssRNA, RB526 pattern with 2'-OH A10 and 2'-F U15) [RB535] | 15.5
GGAGGACGGCGCGCCUGGCAUAAGCCUCC (ssRNA, RB537 with 2'-OMe G17) [RB538] | 15.5
GGAGGACGGCGCGCCUGGCAUAAGCCUCC (ssRNA, RB540 with PS G5-A6) [RB546] | 15.5
GGAGGACGGCGCGCCUGGCAUAAGCCUCC (ssRNA, RB540 with PS A6-C7) [RB547] | 15.5
